# Measured values taken from PMC5175368.
# Molecular target: PA63 (cleaved protective antigen) (Bacillus anthracis) (UniProt P13423)
# Assay: filter binding
# Conditions: N15 and N23 = AEGIS dP
# PA63 (cleaved protective antigen) (Bacillus anthracis), sequence (P13423 197-764): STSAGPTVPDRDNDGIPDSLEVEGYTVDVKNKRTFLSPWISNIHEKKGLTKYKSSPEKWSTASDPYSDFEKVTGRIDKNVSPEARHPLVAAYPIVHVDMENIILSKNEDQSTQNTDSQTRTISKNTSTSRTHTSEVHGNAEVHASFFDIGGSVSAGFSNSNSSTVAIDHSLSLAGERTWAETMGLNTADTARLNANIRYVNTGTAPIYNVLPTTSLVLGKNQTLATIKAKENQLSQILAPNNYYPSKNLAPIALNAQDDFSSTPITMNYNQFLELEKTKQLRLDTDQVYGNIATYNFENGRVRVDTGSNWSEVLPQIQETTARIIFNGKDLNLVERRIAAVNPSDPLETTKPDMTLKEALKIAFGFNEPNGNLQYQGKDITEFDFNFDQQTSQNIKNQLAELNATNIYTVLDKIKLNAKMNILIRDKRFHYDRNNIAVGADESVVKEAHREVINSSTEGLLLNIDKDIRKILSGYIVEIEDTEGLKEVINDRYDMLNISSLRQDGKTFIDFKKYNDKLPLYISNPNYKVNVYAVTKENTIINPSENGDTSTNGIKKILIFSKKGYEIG
sequence,measurement,value
CGTGTAAACCATGGNGTGAGTGNGTAGGTGTCCTGAGGAGGT [PA1T4A6A7],Kd,2290 nM
